# Results reported in the supplement of paper PMC12764529.
# ± gives the half width of the 95% confidence interval.
# Legend:
# [1] = folding stability dG unfold from trypsin proteolysis; higher = more stable
# Summary of the method: (§1)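 Only designs with AlphaFold2 dimer inter-PAE above 15 were retained; each was a mini-protein under 80 residues with no cysteine, in a PA-tagged cDNA display construct. After digestion with trypsin and chymotrypsin and sequencing, K50 was inferred by Bayesian fitting of counts, and unfolding free energy was derived per protease or combined against a sequence-predicted unfolded-state K50 and a shared folded-state K50.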
# [2] = folding stability dG unfold (combined trypsin and chymotrypsin); higher = more stable
# Summary of the method: as §1
# [3] = folding stability dG unfold from chymotrypsin proteolysis; higher = more stable
# Summary of the method: as §1
Sequence,folding stability dG unfold [1] [kcal/mol],folding stability dG unfold [2] [kcal/mol],folding stability dG unfold [3] [kcal/mol]
SAGGKLQLLLRSPDGNVEVALSFEKLPDGKVKVTATVRNKKTGRTYRLEVTFDLKTKKIEIKLEELPSAGGS [r16_684_TrROS_Hall],4.78 ± 0.22,> 6,6.24 ± 0.14
SAGGSAGGSAGMRVVEVYRLPDGSYRIRFPDGTEVEVSPEELEEVARRLGADEVRVRPELSAGGSAGGSAGG [r11_312_JUSTAS],2.4 ± 0.056,3.78 ± 0.051,4.201 ± 0.041
SAGGRLVEAIREANKQGKPMSREEIKDKIKDAIREQNEENGGKIPEIEITDIHWNPDNGYVPIEIKVSAGGS [r16_365_TrROS],-0.152 ± 0.2,-0.561 ± 0.25,-0.62 ± 0.27
SAGGSAGGSAGSMSVTLSTTVEVTVEPLPDYTIVTVTTTTTFPDGSTTTTVTTTPVPPDLGSAGGSAGGSAG [r3_330_JUSTAS],0.957 ± 0.24,1.68 ± 0.22,1.8 ± 0.15
SAGGGSMPASITTEVTETTTPDATVTKSTVYYPDTGKWLEETTTTGPTTTITTTKFPDGSTTVTTAASAGGS [r16_657_JUSTAS],0.275 ± 0.052,-0.175 ± 0.11,-1.18 ± 0.28
SAGGWMTWEFELEDEDGKDIKIEVEQNPGNPWWRVKIEHKGGKPIPEIPIPADSPDDAIDQARDLLKSAGGS [r16_158_TrROS],0.17 ± 0.21,-0.149 ± 0.33,-0.0698 ± 0.49
SAGGAGPEKAEELARALAAELEEEGREWRFKITYSAEPEILSIDVYPLSEPLVDDAKPGYRTLYYDAPSAGG [r13_693_TrMRF],0.659 ± 0.093,0.957 ± 0.12,1.19 ± 0.29
SALKISVTVDPDGPTATATLELYNPETGKPTTLTATIHRLPDGSYLVTIHFPSNNKTITFTVPEDGVITLSA [r9_1220_TrMRF],2.38 ± 0.09,3.03 ± 0.12,3.48 ± 0.038
SAGGSAGGSAGGPMPVSVSPIGTKVEKTEEPLVVETTTTLSDAEGPPVTTTTTTVTPPSTSAGGSAGGSAGG [r11_129_JUSTAS],1.27 ± 0.08,1.35 ± 0.13,1.33 ± 0.1
SAGGSAGGSKPEIRKIKIYTKEGGKKIIPVNGTVIEIDGKKYKVKPNDKIKVPKNVKKIEPEGSAGGSAGGS [r12_779_TrMRF],-0.395 ± 0.25,0.028 ± 0.22,0.153 ± 0.19
SAMVVIPFPKDTPPEVALEAVRKAVREAAENGIVPEKIVVVAHPDLVFLVDSLVEAGIPLENVEFVPSESAG [r14_589_TrMRF],2.87 ± 0.069,2.88 ± 0.052,2.86 ± 0.057
SAGGMITLPIPLEEAEKLLKELTPDGGDVTTTPLGSLDGEVLYEVTITPPETGNTVTVKVLVPKGRGSAGGS [r16_486_JUSTAS],-0.627 ± 0.32,0.0837 ± 0.16,0.178 ± 0.11
SAGGATPLPDGGYRLTYTVKLSPSESVEDAPKAAAALAEKYGVTPVAITVDPSTGTVTIDILLPPEVRSAGG [r13_178_JUSTAS],1.01 ± 0.046,1.44 ± 0.095,1.68 ± 0.11
SAGGSAGGSPEVLASFPLKDGSVVIVARRPGEIRVLVVKSSDLENIPELKDIKVFPTFGDDPVSAGGSAGGS [r12_343_TrMRF],1.03 ± 0.041,1.19 ± 0.05,1.18 ± 0.077
SAGGSAGGSAGKVVVDFGKPALAEAFGVPLSEIENMSEEEALALAKPLVEEGVVDEVVLSSAGGSAGGSAGG [r11_80_TrMRF],1.26 ± 0.048,0.88 ± 0.099,0.524 ± 0.042
SAGGSAGGSAGGPRTIYIPVKVEPDPNGKWKIDIEEIAKNLPDVKITSITPNYIKITFPASAGGSAGGSAGG [r11_771_TrROS],0.398 ± 0.18,1.08 ± 0.16,1.38 ± 0.13
SAGGSAGGSAGGPRMTVVDLDPEKGDHLYLVEIPDTNEVVLVSSSELLRLAEAGPVELKGSAGGSAGGSAGG [r7_452_TrMRF],-0.107 ± 0.27,0.129 ± 0.14,0.115 ± 0.062
SAGGEWRKITVPIKYRFPPGESIDSIANELANLPGLKVEVNVEYEKDPDGRYYMEIPVEIEIPPGAPISAGG [r13_590_TrROS],0.341 ± 0.074,0.576 ± 0.12,0.669 ± 0.16
SAGGSAGGSAKKPTAEEILKKLKLPEGAKIVKIEVEYDKKTKKVTIKIEIKVNGKTYTFEIKSAGGSAGGSA [r18_354_TrROS_Hall],2.81 ± 0.15,3.94 ± 0.18,4.39 ± 0.11
SAGGSAGGSAGGPRTLTLTVTLTRTYYDEETGEEVETETETLTLTLRLEPPPPLSPEQLSAGGSAGGSAGGS [r10_50_TrROS_Hall],2.69 ± 0.061,2.99 ± 0.17,3.19 ± 0.07
SAGGSADRVTVTVTVRVRDPATGEWREVTETVTVPAPLTLEITLPPGWRLRLTLEDGELRLEVEPESAGGSA [r2_109_TrROS_Hall],3.1 ± 0.096,3.93 ± 0.063,4.26 ± 0.051

Sequence,folding stability dG unfold [1] [kcal/mol],folding stability dG unfold [2] [kcal/mol],folding stability dG unfold [3] [kcal/mol]
SAGGSMELELEVKNPETGKTYKVKITSFDEETGEVTVEIEDEETGETKTLTFKVEPVELVEEEEEESAGGSA [r2_147_TrROS_Hall],2.38 ± 0.1,3.08 ± 0.076,3.28 ± 0.037
SAGGSAGGSAGGSMIVVPVTSNEVVDNLGGPVTVPAGTVIIIERTENSVKVEVLPPEKLSAGGSAGGSAGGS [r10_353_JUSTAS],0.917 ± 0.048,0.643 ± 0.11,0.353 ± 0.019
SAGGSASMTTKRPVSPELRAKVEAAAAAGDPAITVTLPVTLPDGRTVTLTVTKDPTADTFTATVVSSAGGSA [r15_700_JUSTAS],0.0823 ± 0.33,0.221 ± 0.22,0.367 ± 0.3
SAGGSAGGSGNSKLTATLTLEFYDPKTGKKIAKIELKPVITTLPNGTAKIDVEYKITFTNEDDSAGGSAGGS [r12_629_TrMRF],2.6 ± 0.14,3.39 ± 0.11,3.74 ± 0.11
SAGGSAGGSAGGGWAEIEIKITIFVFDPGNMTLFMVTLEPRIEVPPVKRDPDNGKWKPDSAGGSAGGSAGGS [r10_815_TrROS],2.86 ± 0.23,3.81 ± 0.42,3.92 ± 0.21
SKMYLVKIKIEVYKDGKLVKEEEIEIEVSEEEAKKLAEKLKEELPGYKVKIEIEVREIEPEDEELLKALESA [r9_782_TrROS_Hall],2.69 ± 0.15,3.61 ± 0.12,4.12 ± 0.054
SAGGSAGGSAKPRVKIVEVDEEKKRVLVKTEDGEVVELEGLTPEQIEELAKALGADEVELVSAGGSAGGSAG [r3_78_TrROS_Hall],0.174 ± 0.07,1.12 ± 0.17,1.53 ± 0.095
SETYKVTVLAEVRIYSRSPDGTWKPIGVFPVEATVEYPAEYREEAERKAVEKVEEEVRKFAESHGVVVEASA [r9_356_TrMRF],1.57 ± 0.043,1.91 ± 0.16,2.31 ± 0.13
SAGGSAGGMLPAEELADYLEKNPGIEIEDIEPPDPGYITVKIKFPRPDPNGEKHKVEVTIQFPVSAGGSAGG [r6_154_TrROS],1.91 ± 0.24,1.4 ± 0.32,1 ± 0.075
SAGGKPGKWRKVEIWLPPDMPDIIEEIAKNWPNVNVDTERHPENGWYPVTGYFPDPNGKPVAKIHIWSAGGS [r8_267_TrROS],0.185 ± 0.064,0.65 ± 0.2,0.933 ± 0.17
SAGGSAGGSAGGIEKFLEKHPELKIKKEIKIKIPYKTKDGKEFEVEYKIFYLTSEDEEDSAGGSAGGSAGGS [r10_0_TrMRF],1.39 ± 0.05,2.36 ± 0.07,2.74 ± 0.057
SAGGMTAEEIAEALRERLRELFPPGAEIEVDEIEVEEVEVEEEPVELSEEERERVEKMPEEERERLLSAGGS [r16_272_TrROS_Hall],1.27 ± 0.22,0.635 ± 0.33,-0.0968 ± 0.18
SKIKPGDVVTIMFPFPPGDPDQIREWAYWIARKLGPDVKVKSVEYNPNDPRYVQIEVRVPGGKITIHIMWSA [r9_1079_TrROS],2.7 ± 0.06,3.7 ± 0.12,4.25 ± 0.076
SAGMTVTFTLDFPANGGPITITVYHGDKAEEITVPKNETVTITVDLDPNDGLTIRAHYPDGSYVEFPIGSAG [r5_187_TrMRF],3.46 ± 0.16,4.5 ± 0.09,4.65 ± 0.053
SAGGSAGGSAGGSNDNVVPITILFVDPGKDDRLYLREIRLRIYENGDIEAEVKVYELPLSAGGSAGGSAGGS [r10_598_TrMRF],2.87 ± 0.11,3.68 ± 0.1,4.12 ± 0.075
SAGGSAGGSAGGSYIIVQFPADEIKEALPPGFEIKSIERSPKNGWVMVAIRYPKDGKPISAGGSAGGSAGGS [r4_435_TrROS],1.04 ± 0.038,0.818 ± 0.2,0.416 ± 0.17
SAGGSAGGSAEYIVVNSDEQLKALKELGGVKEVERKENFVVVEFPDIPPELREKLLEVIKESAGGSAGGSAG [r3_398_TrMRF],-0.0633 ± 0.15,-0.366 ± 0.5,-0.805 ± 0.94
SAGGMTLITIEHPDGEVIEFELPGATEEEAEAIAEEIAKRHDPGKVKVTFEKVPEKGVDPTKPVAVKSAGGS [r8_167_JUSTAS],-0.128 ± 0.073,0.917 ± 0.099,1.39 ± 0.038
SAWVIPFEVRLPGSPEQARRQVEEWADNIANRYQQNGFRVVDIKIDEIEPDNVRVRLTIQIVPPGQEIPSAG [r14_973_TrROS],2.74 ± 0.08,2.66 ± 0.14,2.52 ± 0.054
SAGGEEVVEEPPPPEVEVIEIRDAETDRTVTLVYNKDTGKLFLFDEDTGLVYEFDVDGRLVRVERLPPSAGG [r13_101_TrROS_Hall],2.95 ± 0.26,4.16 ± 0.39,4.48 ± 0.1
SAGGSAGGRLEPITEEEALELARLLAEYIRRLFPGDPRPHLVVVPILVPTPEDGYRLFLAVIAESAGGSAGG [r6_844_TrMRF],2.74 ± 0.079,3.73 ± 0.067,4.1 ± 0.039
